{
  "source": "the RNAGym collection of RNA variant scans (doi:10.1021/acssynbio.7b00057)",
  "parents": {"B1": {"name": "Pistol ribozyme (parent)", "chain": "GGGUCGUUGUUCCAUAAUCGCGUGGAUAUGGCACGCAAGUUUCUACCGGGCACCGUAAAUGUCCGACUGGAGCCGUUCGGGCGGCUAUAAACAGACCUCAGGCCCGAAGCGUGGCGGCACCUGCCGCCGGUGGUAAAAAAGAUCGGAAGAGCACACGUCU"}},
  "data": [
    {"variants_of": "B1", "experiment": "aptazyme ON/OFF ratio, guanine; higher = stronger switching; co-transcriptional cleavage with and without guanine", "values": [
      {"variant": "U8C C12A C13A", "aptazyme ON/OFF ratio": 1.24},
      {"variant": "U8C C12A C13U", "aptazyme ON/OFF ratio": 1.21},
      {"variant": "U8C G9A U10A U11G C13G", "aptazyme ON/OFF ratio": 1.08},
      {"variant": "U8C G9A U10A U11G C13A", "aptazyme ON/OFF ratio": 1.19},
      {"variant": "U8C G9A U10A U11G C13U", "aptazyme ON/OFF ratio": 1.18},
      {"variant": "U8C G9A U11A C12G C13U", "aptazyme ON/OFF ratio": 1.23},
      {"variant": "U8C G9A U11A C12G C13G", "aptazyme ON/OFF ratio": 1.2},
      {"variant": "U8C G9A U11A C12G C13A", "aptazyme ON/OFF ratio": 1.14},
      {"variant": "U8C G9C C12G C13A", "aptazyme ON/OFF ratio": 1.14},
      {"variant": "U8C G9C C12G C13G", "aptazyme ON/OFF ratio": 1.14},
      {"variant": "U8C G9C C12G C13U", "aptazyme ON/OFF ratio": 1.13},
      {"variant": "U8C G9A U10G U11C C12G C13U", "aptazyme ON/OFF ratio": 1.2},
      {"variant": "U8C G9A U10G U11C C12G C13A", "aptazyme ON/OFF ratio": 1.18},
      {"variant": "U8C G9A U10G U11C C12G C13G", "aptazyme ON/OFF ratio": 1.28},
      {"variant": "U8C G9A U10C U11G C13A", "aptazyme ON/OFF ratio": 1.2},
      {"variant": "U8C G9A U10C U11G C13G", "aptazyme ON/OFF ratio": 1.44},
      {"variant": "U8C G9A U10C U11G C13U", "aptazyme ON/OFF ratio": 1.35},
      {"variant": "U8C G9A U10G U11A C12U C13A", "aptazyme ON/OFF ratio": 1.1},
      {"variant": "U8C G9A U10G U11A C12U C13U", "aptazyme ON/OFF ratio": 1.17},
      {"variant": "U8C G9A U10G U11A C12U C13G", "aptazyme ON/OFF ratio": 1.16},
      {"variant": "U8C G9A U10G C13U", "aptazyme ON/OFF ratio": 1.26},
      {"variant": "U8C G9A U10G C13A", "aptazyme ON/OFF ratio": 1.28},
      {"variant": "U8C G9A U10G C13G", "aptazyme ON/OFF ratio": 1.14},
      {"variant": "U8C G9A C12U", "aptazyme ON/OFF ratio": 1.38},
      {"variant": "U8C G9A C12G", "aptazyme ON/OFF ratio": 1.26},
      {"variant": "U8C G9A C12A", "aptazyme ON/OFF ratio": 1.35},
      {"variant": "U8C G9A U10G U11G", "aptazyme ON/OFF ratio": 1.06},
      {"variant": "U8C G9A U10G U11A", "aptazyme ON/OFF ratio": 1.02},
      {"variant": "U8C G9A U10G U11C", "aptazyme ON/OFF ratio": 1.05},
      {"variant": "U8C C12G C13G", "aptazyme ON/OFF ratio": 1.15},
      {"variant": "U8C C12G C13A", "aptazyme ON/OFF ratio": 1.19},
      {"variant": "U8C C12G C13U", "aptazyme ON/OFF ratio": 1.31},
      {"variant": "U8C G9A U10A U11A C12G C13G", "aptazyme ON/OFF ratio": 1.17},
      {"variant": "U8C G9A U10A U11A C12G C13A", "aptazyme ON/OFF ratio": 1.15},
      {"variant": "U8C G9A U10A U11A C12G C13U", "aptazyme ON/OFF ratio": 1.21},
      {"variant": "U8C G9A U10C U11C C12G", "aptazyme ON/OFF ratio": 1.18},
      {"variant": "U8C G9A U10C U11C C12U", "aptazyme ON/OFF ratio": 1.08},
      {"variant": "U8C G9A U10C U11C C12A", "aptazyme ON/OFF ratio": 1.17},
      {"variant": "U8C G9A U10A U11G C12A C13U", "aptazyme ON/OFF ratio": 1.11},
      {"variant": "U8C G9A U10A U11G C12A C13A", "aptazyme ON/OFF ratio": 1.1},
      {"variant": "U8C G9A U10A U11G C12A C13G", "aptazyme ON/OFF ratio": 1.17},
      {"variant": "U8C G9A U10A C13U", "aptazyme ON/OFF ratio": 1.42},
      {"variant": "U8C G9A U10A C13A", "aptazyme ON/OFF ratio": 1.17},
      {"variant": "U8C G9A U10A C13G", "aptazyme ON/OFF ratio": 1.05},
      {"variant": "U8C G9A U11G C12G C13G", "aptazyme ON/OFF ratio": 1.19},
      {"variant": "U8C G9A U11G C12G C13U", "aptazyme ON/OFF ratio": 1.11},
      {"variant": "U8C G9A U11G C12G C13A", "aptazyme ON/OFF ratio": 1.19},
      {"variant": "U8C G9A U10A U11G C12U C13G", "aptazyme ON/OFF ratio": 1.18},
      {"variant": "U8C G9A U10A U11G C12U C13A", "aptazyme ON/OFF ratio": 1.18},
      {"variant": "U8C G9A U10A U11G C12U C13U", "aptazyme ON/OFF ratio": 1.23},
      {"variant": "U8C G9A U10A C12A C13A", "aptazyme ON/OFF ratio": 1.17},
      {"variant": "U8C G9A U10A C12A C13G", "aptazyme ON/OFF ratio": 1.13},
      {"variant": "U8C G9A U10A C12A C13U", "aptazyme ON/OFF ratio": 1.31},
      {"variant": "U8C G9A U10G C12G", "aptazyme ON/OFF ratio": 1.15},
      {"variant": "U8C G9A U10G C12U", "aptazyme ON/OFF ratio": 1.36},
      {"variant": "U8C G9A U10G C12A", "aptazyme ON/OFF ratio": 1.16},
      {"variant": "U8C G9A U11G C12A C13G", "aptazyme ON/OFF ratio": 1.29},
      {"variant": "U8C G9A U11G C12A C13A", "aptazyme ON/OFF ratio": 1.22},
      {"variant": "U8C G9A U11G C12A C13U", "aptazyme ON/OFF ratio": 1.27},
      {"variant": "U8C G9A U10C U11A C12G C13A", "aptazyme ON/OFF ratio": 1.23},
      {"variant": "U8C G9A U10C U11A C12G C13U", "aptazyme ON/OFF ratio": 1.19},
      {"variant": "U8C G9A U10C U11A C12G C13G", "aptazyme ON/OFF ratio": 1.5},
      {"variant": "U8C G9A U10G C12G C13U", "aptazyme ON/OFF ratio": 1.22},
      {"variant": "U8C G9A U10G C12G C13A", "aptazyme ON/OFF ratio": 1.14},
      {"variant": "U8C G9A U10G C12G C13G", "aptazyme ON/OFF ratio": 1.11},
      {"variant": "U8C", "aptazyme ON/OFF ratio": 3.02},
      {"variant": "U8C G9A U10A C12U", "aptazyme ON/OFF ratio": 1.31},
      {"variant": "U8C G9A U10A C12A", "aptazyme ON/OFF ratio": 1.22},
      {"variant": "U8C G9A U10A C12G", "aptazyme ON/OFF ratio": 1.29},
      {"variant": "U8C G9A U10A U11C C12U C13U", "aptazyme ON/OFF ratio": 1.14},
      {"variant": "U8C G9A U10A U11C C12U C13A", "aptazyme ON/OFF ratio": 1.13},
      {"variant": "U8C G9A U10A U11C C12U C13G", "aptazyme ON/OFF ratio": 1.14},
      {"variant": "U8C G9A C12A C13G", "aptazyme ON/OFF ratio": 1.14},
      {"variant": "U8C G9A C12A C13U", "aptazyme ON/OFF ratio": 1.17},
      {"variant": "U8C G9A C12A C13A", "aptazyme ON/OFF ratio": 1.33},
      {"variant": "U8C C12A", "aptazyme ON/OFF ratio": 1.52},
      {"variant": "U8C C12U", "aptazyme ON/OFF ratio": 1.49},
      {"variant": "U8C C12G", "aptazyme ON/OFF ratio": 1.38},
      {"variant": "U8C G9A U10A U11C C12A C13U", "aptazyme ON/OFF ratio": 1.19},
      {"variant": "U8C G9A U10A U11C C12A C13A", "aptazyme ON/OFF ratio": 1.17},
      {"variant": "U8C G9A U10A U11C C12A C13G", "aptazyme ON/OFF ratio": 1.18},
      {"variant": "U8C G9A U10C U11G", "aptazyme ON/OFF ratio": 1.19},
      {"variant": "U8C G9A U10C U11C", "aptazyme ON/OFF ratio": 1.25},
      {"variant": "U8C G9A U10C U11A", "aptazyme ON/OFF ratio": 3.76}
    ]}
  ]
}
